Experimental data published in the supplement of paper PMC7877785.
± gives the uncertainty stated by the source.

Experiment: self-splicing fitness, log relative to wild type (ln ratio); higher = more splicing; Tetrahymena group I intron in knt gene, E. coli kanamycin selection, DiMSum; sequences stand for … in CUCUCU…GGAGGGAAAAGUUAUCAGGCAUGCACCUGGUAGCUAGUCUUUAAACCAAUAGAUUGCAUCGGUUUAAAAGGCAAGACCGUCAAAUUGCGGGAAAGGGGUCAACAGCCGUUCAGUACCAAGUCUCAGGGGAAACUUUGAGAUGGCCUUGCAAAGGGUAUGGUAAUAAGCUGACGGACAUGGUCCUAACCACGCAGCCAAGUCCUAAGUCAACAGAUCUUCUGUUGAUAUGGAUGCAGUUCACAGACUAAAUGUCGGUCGGGGAAGAUGUAUUCUUCUCAUAAGAUAUAGUCGGACCUCUCCUUAAUGGGAGCUAGCGGAUGAAGUGAUGCAACACUGGAGCCGCUGGGAACUAAUUUGUAUGCGAAAGUAUAUUGAUUAGUUUUGGAGUACUCGUGGUCG
Procedure, shortened: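 DiMSum derived fitness as the error-weighted combination of fold changes across replicates, kanamycin versus no kanamycin, normalised to wild type. E. coli BL21(DE3) held the library, which randomised all eight P1ex-region intron nucleotides within the knt kanamycin-resistance gene on pET-22b(+). Six replicate transformations grew overnight at 37°C or 30°C on LB agar with or without 25 μg/mL kanamycin, also containing 100 μg/mL carbenicillin, 50 μM IPTG and 0.2% rhamnose, and pooled colonies were amplicon-sequenced on an Illumina HiSeq 2500.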

| Sequence | self-splicing fitness (ln) (30 °C) | self-splicing fitness (ln) (37 °C) |
| --- | --- | --- |
| CAUGAGCAAUAUUACGCCAU | -3.43 ± 0.3 | – |
| CAUGAGCAAUAUUACGCCCU | – | -1.18 ± 0.27 |
| CAUGAGCAAUAUUACGCCGC | -3.56 ± 0.2 | -2.71 ± 0.22 |
| CAUGAGCAAUAUUACGCCUU | -3.02 ± 0.26 | -1.86 ± 0.24 |
| CAUGAGCAAUAUUACGGAGG | -3 ± 0.14 | -2.16 ± 0.18 |
| CAUGAGCAAUAUUACGGAUA | -3.32 ± 0.22 | -1.68 ± 0.24 |
| CAUGAGCAAUAUUACGGAUC | – | -2.94 ± 0.33 |
| CAUGAGCAAUAUUACGGAUG | -3.02 ± 0.31 | -2.01 ± 0.26 |
| CAUGAGCAAUAUUACGGCAC | – | -1.42 ± 0.3 |
| CAUGAGCAAUAUUACGGCUG | -0.641 ± 0.073 | -0.532 ± 0.12 |
| CAUGAGCAAUAUUACGGGUU | -3.04 ± 0.1 | -3.05 ± 0.16 |
| CAUGAGCAAUAUUACGUAAU | -3.04 ± 0.29 | -2.73 ± 0.3 |
| CAUGAGCAAUAUUACGUCGG | -2.94 ± 0.18 | -1.57 ± 0.21 |
| CAUGAGCAAUAUUACGUGAG | -3.88 ± 0.37 | -2.55 ± 0.24 |
| CAUGAGCAAUAUUACGUGCA | -1.37 ± 0.15 | -1.97 ± 0.24 |
| CAUGAGCAAUAUUACGUUGU | -4.13 ± 0.29 | -3.57 ± 0.19 |
| CAUGAGCAAUAUUACGUUUG | -3.57 ± 0.16 | -2.89 ± 0.2 |
| CAUUAGCAAUAUUACGACCU | -1.77 ± 0.45 | -1.77 ± 0.47 |
| CAUUAGCAAUAUUACGACGG | -0.257 ± 0.094 | -0.0198 ± 0.13 |
| CAUUAGCAAUAUUACGAGGC | – | -1.85 ± 0.33 |
| CAUUAGCAAUAUUACGAUGA | -2.12 ± 0.2 | -1.09 ± 0.15 |
| CAUUAGCAAUAUUACGAUGU | -3.45 ± 0.25 | -3.38 ± 0.23 |
| CAUUAGCAAUAUUACGAUUG | -1.49 ± 0.077 | -0.759 ± 0.11 |
| CAUUAGCAAUAUUACGCCAC | -2.71 ± 0.44 | -2.41 ± 0.35 |
| CAUUAGCAAUAUUACGCCUC | -1.17 ± 0.21 | -1.83 ± 0.31 |

| Sequence | self-splicing fitness (ln) (30 °C) | self-splicing fitness (ln) (37 °C) |
| --- | --- | --- |
| CAUUAGCAAUAUUACGCGAU | -3.83 ± 0.32 | -1.52 ± 0.23 |
| CAUUAGCAAUAUUACGCGUC | -2.64 ± 0.29 | -2.01 ± 0.26 |
| CAUUAGCAAUAUUACGCUGG | -2.7 ± 0.13 | -1.67 ± 0.14 |
| CAUUAGCAAUAUUACGCUUA | -2.22 ± 0.13 | -2.16 ± 0.15 |
| CAUUAGCAAUAUUACGCUUC | -2.28 ± 0.34 | – |
| CAUUAGCAAUAUUACGGACA | -2.45 ± 0.22 | -1.22 ± 0.18 |
| CAUUAGCAAUAUUACGGAUG | -3.67 ± 0.39 | -3.03 ± 0.25 |
| CAUUAGCAAUAUUACGGCAG | -0.186 ± 0.078 | -0.0776 ± 0.11 |
| CAUUAGCAAUAUUACGGCAU | -2.99 ± 0.21 | -1.66 ± 0.17 |
| CAUUAGCAAUAUUACGGGAC | -3.64 ± 0.27 | -2.31 ± 0.25 |
| CAUUAGCAAUAUUACGGUAG | -0.468 ± 0.062 | -0.027 ± 0.072 |
| CAUUAGCAAUAUUACGUACG | -0.341 ± 0.09 | 0.593 ± 0.12 |
| CAUUAGCAAUAUUACGUACU | -3.11 ± 0.18 | -1.8 ± 0.15 |
| CAUUAGCAAUAUUACGUUCG | 0.151 ± 0.084 | 0.359 ± 0.093 |
| CAUUAGCAAUAUUACGUUUA | -1.42 ± 0.15 | -1.48 ± 0.15 |
| CCAAAGCAAUAUUACGACAG | -0.638 ± 0.066 | -0.249 ± 0.089 |
| CCAAAGCAAUAUUACGAGCG | -0.496 ± 0.069 | -0.161 ± 0.1 |
| CCAAAGCAAUAUUACGCAAG | -1.83 ± 0.12 | -1.52 ± 0.14 |
| CCAAAGCAAUAUUACGCCCC | – | -0.985 ± 0.44 |
| CCAAAGCAAUAUUACGCCCG | -0.324 ± 0.15 | 0.862 ± 0.18 |
| CCAAAGCAAUAUUACGCCGU | -3.25 ± 0.29 | -3.3 ± 0.35 |
| CCAAAGCAAUAUUACGCUUC | -3.37 ± 0.18 | -2.48 ± 0.18 |
| CCAAAGCAAUAUUACGGAGU | -2.7 ± 0.13 | -2.35 ± 0.2 |
| CCAAAGCAAUAUUACGGCGU | -3.49 ± 0.12 | -2.62 ± 0.14 |
| CCAAAGCAAUAUUACGGGAC | -4.28 ± 0.3 | -3.32 ± 0.46 |

| Sequence | self-splicing fitness (ln) (30 °C) | self-splicing fitness (ln) (37 °C) |
| --- | --- | --- |
| CCAAAGCAAUAUUACGGGCG | -1.31 ± 0.065 | -0.301 ± 0.094 |
| CCAAAGCAAUAUUACGGGGC | -3.09 ± 0.19 | -2.93 ± 0.27 |
| CCAAAGCAAUAUUACGGGGG | -3.14 ± 0.18 | -1.5 ± 0.16 |
| CCAAAGCAAUAUUACGGUCC | -4.23 ± 0.46 | -2.13 ± 0.3 |
| CCAAAGCAAUAUUACGGUGG | -4.1 ± 0.19 | -1.76 ± 0.16 |
| CCAAAGCAAUAUUACGUACA | -3.73 ± 0.23 | -3.32 ± 0.28 |
| CCAAAGCAAUAUUACGUGAA | -4.04 ± 0.17 | -3.18 ± 0.27 |
| CCAAAGCAAUAUUACGUGGU | -3.39 ± 0.098 | -3.29 ± 0.14 |
| CCAAAGCAAUAUUACGUUAU | -3.2 ± 0.13 | -2.68 ± 0.15 |
| CCACAGCAAUAUUACGAAAA | -3.8 ± 0.27 | -2.58 ± 0.22 |
| CCACAGCAAUAUUACGAGAC | -3.7 ± 0.2 | -3.01 ± 0.23 |
| CCACAGCAAUAUUACGAGUG | -1.31 ± 0.057 | 0.0708 ± 0.062 |
| CCACAGCAAUAUUACGAUAA | -3.11 ± 0.25 | -2.75 ± 0.32 |
| CCACAGCAAUAUUACGCAAG | -1.34 ± 0.064 | -0.406 ± 0.072 |
| CCACAGCAAUAUUACGCGAG | -1.27 ± 0.076 | -0.902 ± 0.083 |
| CCACAGCAAUAUUACGCGCU | -4.48 ± 0.23 | -2.26 ± 0.15 |
| CCACAGCAAUAUUACGCUAU | -3.61 ± 0.26 | -3.12 ± 0.25 |
| CCACAGCAAUAUUACGGAAC | -3.75 ± 0.24 | -2.47 ± 0.23 |
| CCACAGCAAUAUUACGGAUA | -2.27 ± 0.12 | -2.68 ± 0.18 |
| CCACAGCAAUAUUACGGGAA | -3.4 ± 0.15 | -3.01 ± 0.2 |
| CCACAGCAAUAUUACGGGAC | -3.78 ± 0.33 | -2.26 ± 0.2 |
| CCACAGCAAUAUUACGGGGC | -3.95 ± 0.14 | -2.43 ± 0.16 |
| CCACAGCAAUAUUACGUAAG | -0.731 ± 0.038 | 0.388 ± 0.061 |
| CCACAGCAAUAUUACGUAUC | -2.59 ± 0.16 | -2 ± 0.22 |
| CCACAGCAAUAUUACGUCGG | -3.14 ± 0.12 | -1.95 ± 0.18 |

| Sequence | self-splicing fitness (ln) (30 °C) | self-splicing fitness (ln) (37 °C) |
| --- | --- | --- |
| CCACAGCAAUAUUACGUGGA | -3.7 ± 0.16 | -3.16 ± 0.16 |
| CCACAGCAAUAUUACGUGUG | -3.61 ± 0.095 | -2.36 ± 0.092 |
| CCACAGCAAUAUUACGUUAU | -4.08 ± 0.15 | -2.66 ± 0.16 |
| CCAGAGCAAUAUUACGAAAG | -2.45 ± 0.2 | -1.47 ± 0.17 |
| CCAGAGCAAUAUUACGAACU | -3.13 ± 0.35 | -1.86 ± 0.35 |
| CCAGAGCAAUAUUACGACGC | -4.17 ± 0.34 | -2.11 ± 0.28 |
| CCAGAGCAAUAUUACGAGCA | -5.29 ± 0.41 | -2.32 ± 0.19 |
| CCAGAGCAAUAUUACGCCGU | -4.04 ± 0.48 | – |
| CCAGAGCAAUAUUACGCGAU | – | -2.21 ± 0.33 |
| CCAGAGCAAUAUUACGGCAA | -2.25 ± 0.38 | -2.28 ± 0.3 |
| CCAGAGCAAUAUUACGGUAA | -2.75 ± 0.22 | -2.33 ± 0.26 |
| CCAGAGCAAUAUUACGGUGA | -3.55 ± 0.2 | -2.6 ± 0.23 |
| CCAGAGCAAUAUUACGUCAG | -2.58 ± 0.12 | -1.6 ± 0.15 |
| CCAUAGCAAUAUUACGAAAA | -3.02 ± 0.29 | – |
| CCAUAGCAAUAUUACGAAUG | -2.11 ± 0.08 | -1.15 ± 0.095 |
| CCAUAGCAAUAUUACGACAA | -3.06 ± 0.41 | -2.94 ± 0.35 |
| CCAUAGCAAUAUUACGAGCC | -4.57 ± 0.45 | -2.16 ± 0.36 |
| CCAUAGCAAUAUUACGAUCC | -3.2 ± 0.35 | -1.43 ± 0.41 |
| CCAUAGCAAUAUUACGAUUC | -3.64 ± 0.25 | -2.89 ± 0.41 |
| CCAUAGCAAUAUUACGCAUC | -3.39 ± 0.27 | -2.31 ± 0.3 |
| CCAUAGCAAUAUUACGCCAA | -2.76 ± 0.43 | -1.58 ± 0.25 |
| CCAUAGCAAUAUUACGCGAU | -2.56 ± 0.27 | -2.91 ± 0.43 |
| CCAUAGCAAUAUUACGCGGC | -4.01 ± 0.35 | -2.87 ± 0.43 |
